The values below come from paper PMC6531494, “Exploring the sequence variability of polymerization-involved residues in the production of levan- and inulin-type fructooligosaccharides with a levansucrase” (Scientific Reports, 2019).

What is called Km is the substrate concentration at which the rate is half of its maximum. The term kcat denotes the maximal rate divided by the concentration of active sites. As a reminder, the kcat/Km is the second-order rate constant that governs catalysis at low substrate concentration.

Substrate in this data set: OC[C@H]1O[C@@](CO)(O[C@H]2O[C@H](CO)[C@@H](O)[C@H](O)[C@H]2O)[C@@H](O)[C@@H]1O
The experiment in a line: initial rates, DNS reducing sugar assay, Michaelis-Menten fit. The class given is biochemical, Priestia megaterium. The source says:
initial rates, DNS reducing sugar assay, Michaelis-Menten fit on B. megaterium levansucrase

Where [1] appears, read: 50 mM Sörensen buffer pH 6.5, variant 1B1, global activity (hydrolysis and transfer).
Setting [2] is: 50 mM Sörensen buffer pH 6.5, variant 3C5, global activity (hydrolysis and transfer).

B1: B. megaterium levansucrase (Priestia megaterium DSM 319; K373H) (protein)
chain: KGNDSKDFNNSYGISHITRDNMVKIPQQQNSDQFKVPAFDESTIKNIASAKGKNASGNTIDLDVWDSWPLQNADGTVATYHGYQIVFALAGDPKDSNDTSVYLFYKKAGDKSIDSWKNAGRVFKDSDKFVPNDPHLKNQTQEWSGSGTLTKDGKVRLFYTDYSGKQYGKQTLTTAQVNMSQPNDNTLKVDGVEDYKSIFDGDGKIYQTVQQFIDEGGYDTGDNHTLRDPHYIEDNGHKYLVFEANTGTEDGYQGEDSLYNRAYYGGNNPFFQSEKKKLLEGSNKEKASLANGALGIIELNDDYTLKKVMKPLITSNTVTDEIERANIFKKDGKWYLFTDSRGSHMTIDGIGQDDVYMLGYVSNTLTGKYKPLNDTGLVLHMDLDPNDKTFTYSHFAVPQTKGDNVVITSYMTNRGFYEDNHSTFAPSFLVNIDGSKTSVVKDRVLEQGQLTVDED
notes: recombinant, E. coli BL21(DE3), pRSF-derived vector, purified from cleared lysate on CM sepharose
For the protein B1, under setting [1], the Km was determined as 41.8 ± 6.6 mM, the kcat came out at 198 ± 8.4 s⁻¹ and the kcat/Km is 4720 M⁻¹ s⁻¹.

B2: B. megaterium levansucrase (Priestia megaterium DSM 319; K373L) (protein)
chain: KGNDSKDFNNSYGISHITRDNMVKIPQQQNSDQFKVPAFDESTIKNIASAKGKNASGNTIDLDVWDSWPLQNADGTVATYHGYQIVFALAGDPKDSNDTSVYLFYKKAGDKSIDSWKNAGRVFKDSDKFVPNDPHLKNQTQEWSGSGTLTKDGKVRLFYTDYSGKQYGKQTLTTAQVNMSQPNDNTLKVDGVEDYKSIFDGDGKIYQTVQQFIDEGGYDTGDNHTLRDPHYIEDNGHKYLVFEANTGTEDGYQGEDSLYNRAYYGGNNPFFQSEKKKLLEGSNKEKASLANGALGIIELNDDYTLKKVMKPLITSNTVTDEIERANIFKKDGKWYLFTDSRGSLMTIDGIGQDDVYMLGYVSNTLTGKYKPLNDTGLVLHMDLDPNDKTFTYSHFAVPQTKGDNVVITSYMTNRGFYEDNHSTFAPSFLVNIDGSKTSVVKDRVLEQGQLTVDED
notes: as for B1
On to B2, for which, under setting [2], the Km is reported as 12.5 ± 1.3 mM, the kcat worked out at 122 ± 2.3 s⁻¹ and the kcat/Km stood at 9800 M⁻¹ s⁻¹.
